Results taken from the supplement of paper PMC9170038.

Test system: MS2 coat protein
Test: apparent KD of MS2 coat protein; designed switch direction (-1 OFF switch, 1 ON switch): -1; higher = weaker reporter binding
Summary of the method: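 Each step of the titration lasted 0.8–1.5 h at the lowest concentration and 10–20 min at the highest. The protein, SNAP-549-labelled MS2 coat protein, went from 0.7 or 1.5 nM doubling to 3 µM over RNA switches transcribed on Illumina chips by stalled E. coli RNA polymerase. Normalised cluster fluorescence was curve-fitted, and the per-design median over clusters is given as apparent KD.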

[1] = input ligand: microRNA oligo, concentration not stated
[2] = Eterna round: R95, input ligand: FMN 200 uM
[3] = Eterna round: R95, input ligand: microRNA oligo, concentration not stated
[4] = Eterna round: R95, input ligand: none

| Sequence | apparent KD of MS2 coat protein (input ligand: FMN 200 uM) [nM] | apparent KD of MS2 coat protein [1] [nM] | apparent KD of MS2 coat protein (input ligand: none) [nM] | apparent KD of MS2 coat protein [2] [nM] | apparent KD of MS2 coat protein [3] [nM] | apparent KD of MS2 coat protein [4] [nM] |
| --- | --- | --- | --- | --- | --- | --- |
| GUACUGAAGCUUUGCUUUAGUCGUACAUGAGGAUCACCCAUGUAGGAUAUGGUAGGCUUUGCUUACUAGAAGGAUAGAGUGAUC [JL EXNG3 1.27] (Eterna round: R96, puzzle: Exclusion NG 3) | 81.7 | 31.7 | 119 | – | – | – |
| UGGCUGCUCAGGGAGUGUGACAUGAGGAUCACCCAUGUGGUAGUAAGGAACAAGCUUUUUACACGUACUUAUAAAGC [JR_SV3TOV1_Sub011] (puzzle: Sensor v3, turn-off variant 1) | – | – | – | 157 | 135 | 296 |
| UGUUGUCGCGUAGGAUAUUGUCAACAGGCAGUAGGAUAUGCGAAAGCAGAAGGACCGCCAACAGGCGAGAAGGACGGGACAACU [pwkr exNG2 2xF7 2xFMN.6] (Eterna round: R96, puzzle: Exclusion NG 2) | 44.3 | 35.6 | 138 | – | – | – |
| UAUAUGUCAGGAUAUUAGUAGUAAAUGAAUAAAAUUAUUACUGAGAAGGGACAUGAGGAUCACCCAUGUGUCUC [Mat - Exclusion 4 - Eli Mod - D26] (Eterna round: R97, puzzle: Exclusion 4) | 577 | – | 175 | – | – | – |
| AUCAGCUCGUGAGGAUAUGCACAUGAGGAUCACCCAUGUAAGAUCAAGCUGCUUCGGCAGCAAGUGCAGAAGGUACGAGCUGAU [ENG2/9-C2] (Eterna round: R96, puzzle: Exclusion NG 2) | 206 | 128 | 234 | – | – | – |
| GAGAUACAUGAGGAUCACCCAUGUGAGGAUAUGAGCACGCCGGUGACGGUGAUAAGAAUCAGAAGGCACAAUGG [Mat - Exclusion 1 - JL Mod - D31] (Eterna round: R97, puzzle: Exclusion 1) | 338 | – | 453 | – | – | – |
| UUUGAUUGCACAGGAUAUUGUCAUUUGAGUUGUCAAGAAGGGUGUACAUGAGGAUCACCCAUGUAAUGGUUGCCUCGCUGACUU [JR_ExcNG1_Sub008] (Eterna round: R96, puzzle: Exclusion NG 1) | – | 77.1 | – | – | – | – |
| GUGUACUGAGGAUAUGCUGGAAUCUAGCGAAGCUAGGUUCCACAUGAGGAUCACCCAUGUAGAAGGCGGUACAC [Dot plot directed A v6] (puzzle: Exclusion 2) | – | – | – | – | 29.1 | – |
| AAGAGUGCAGGAUAUACUUGGUAGGGCGGGUGGAUGAAGUGACAUGAGGAUCACCCAUGUAGAAGGGCAGAGAG [JR_Exclu2_Sub055] (puzzle: Exclusion 2) | – | – | – | 24.6 | 21.4 | 25.7 |
| UAUUAUAAUGUAGGAUAUCUGCACGUGUAGUGCAGAGAAGGACAUGAGGAUCACCCAUGUAUAGUAGCUUCGGCUACAUUAUUU [ENG1-B3] (Eterna round: R96, puzzle: Exclusion NG 1) | 90.5 | 61.8 | 71.2 | – | – | – |
| CGCUGUUGAGGAUAUGGGCGUGGUUACAUGAGGAUCACCCAUGUGGUGUCGCGCGUGGGUCCAGAAGGCGGCGGUG [-31.8, -28.5 kcal, 16% A] (Eterna round: R97, puzzle: Exclusion 5) | 33.5 | – | 17.5 | – | – | – |
| GCGGACAAGAUGGUGACAUCAGAGACAUGAGGAUCACCCAUGUAGGAUAUCGAUUCGAAACGAAUCGAGAAGGGCAUAGUCCGC [JL denovo 3] (Eterna round: R96, puzzle: Exclusion NG 3) | 460 | 190 | 224 | – | – | – |
| GGGUAAUUCGUGAGGAUAUCGCUAAGCACUUUGGCCGAGAAGGCACAUGAGGAUCACCCAUGUAAUACGGCACG [Eternabot (L1) Solution 92] (Eterna round: R97, puzzle: Brourd's mod of Exclusion 4) | 70.9 | – | 19.1 | – | – | – |
| UUAUUAUAUGUAGGAUAUGCAUAUUAUUAUUAUGCAGAAGGACAUGAGGAUCACCCAUGUAUAUUAUUGUUAUAUAUUAUAUAU [Title] (Eterna round: R96, puzzle: Exclusion NG 1) | – | 21 | – | – | – | – |
| CGGUACUGAGGAUAUACAUGAGGAUCACCCAUGUGUUCAAGCUAGCGUACUGGCAUUAGUAGAAGGCGGUGCUG [JL-ex3-3.21 Brourd mod] (puzzle: Exclusion 3) | – | – | – | 26.7 | 14.6 | 16.9 |
| AGUGUGUGGCAGGAUAUUCUGUUGAUUAGGACAGAAGAAGGGUCUACAUGAGGAUCACCCAUGUAAGCGGUUGA [Ex6 #36] (Eterna round: R97, puzzle: Exclusion 6) | 275 | – | 268 | – | – | – |
| AAGAAUUUGCAGGAUAUCUACCACGAUAGGGAUAGAGAAGGGUAAACAUGAGGAUCACCCAUGUAGUAGGUCCG [Eternabot (L2) Solution 91] (Eterna round: R97, puzzle: Exclusion 6) | 61.3 | – | 115 | – | – | – |

| Sequence | apparent KD of MS2 coat protein (input ligand: FMN 200 uM) [nM] | apparent KD of MS2 coat protein [1] [nM] | apparent KD of MS2 coat protein (input ligand: none) [nM] | apparent KD of MS2 coat protein [2] [nM] | apparent KD of MS2 coat protein [3] [nM] | apparent KD of MS2 coat protein [4] [nM] |
| --- | --- | --- | --- | --- | --- | --- |
| UAACUUCUAGUAAGGAUAUCGGUCCCAAGGGACAACGAGAAGGUACAUGAGGAUCACCCAUGUGAAAUAAGAAU [Mod of Zala 2 - Jieux - Brourd's Mod of Exclusion 4] (Eterna round: R97, puzzle: Brourd's mod of Exclusion 4) | 72.9 | – | 20.7 | – | – | – |
| GACCCGUCAGGAUAUACAUGAGGAUCACCCAUGUAAUCAGCGAUAGGACAAGGCUCACGUAGAAGGGACAGGGU [Eternabot (L1) Solution 33] (Eterna round: R97, puzzle: Exclusion 3) | 44.6 | – | 22.8 | – | – | – |
| UUCUUUGUUGUGAGGAUAUCGUAUUCUUUUUGUUACGAGAAGGCACAUGAGGAUCACCCAUGUUUCUUGAUGUU [JR_BMOE4_Sub068] (puzzle: Brourd's mod of Exclusion 4) | – | – | – | – | 16.7 | – |
| GAGCAGUGAGGAUAUACAUGAGGAUCACCCAUGUAAUGGUAGUCGGGAUUAAUUUGGUGUAGAAGGCGCUUAUU [JR_Ex3_Sub021] (Eterna round: R97, puzzle: Exclusion 3) | 64 | – | 79.9 | – | – | – |
| UUUUAACAUGAGGAUCACCCAUGUGAGGAUAUCGAUAUUUUUAUUAAUAUUAAUAAAACGAGAAGGCACAUUUU [JMF 15] (puzzle: Exclusion 1) | – | – | – | – | 65.4 | – |
| GUCCUCAUGACAUGAGGAUCACCCAUGUAUUAUUUGUUAACUGAGGAUAUACUCUUAAUGUUUAUGUAGAAGGCAGAUUCGGUC [JR_ExcNG3_Sub019] (Eterna round: R96, puzzle: Exclusion NG 3) | 51.6 | 37.8 | 40.7 | – | – | – |
| CUGCUGGAGCGGCGCUUUGGUCGUACAUGAGGAUCACCCAUGUAGGAUAUGGUAAAAUUCGCCUGCUAGAAGGAUAGAGUGGUC [salish99_ExNG3_r04_617] (Eterna round: R96, puzzle: Exclusion NG 3) | 135 | 62.5 | 88.1 | – | – | – |
| UCGCUCCGUGUAGGAUAUCGCCGUAUGAUGCGGCGAGAAGGACAUGAGGAUCACCCAUGUAUGUUAUUAUCACGCGUGGCGCAA [Design 63] (Eterna round: R96, puzzle: Exclusion NG 1) | 17.4 | 12 | 16.9 | – | – | – |
| GCAGGCGACUAGGCUCGUCUUAUUUUGAGAAGAUUGAAAACAUGAGGAUCACCCAUGUGUGUGGGAGAGUUGGAGUG [JR_SV3TOV2_Sub012] (puzzle: Sensor v3, turn-off variant 2) | – | – | – | 268 | 346 | 475 |
| GUUCGACAUGAGGAUCACCCAUGUGAGGAUAUACGAUUAGCUGCUAGGUAGUUAGUAUGUAGAAGGUGCGUGAA [EX1 #72] (Eterna round: R97, puzzle: Exclusion 1) | 44 | – | 41.6 | – | – | – |
| AGUAUGUCAGGAUAUCUCGGGUAGCCCACAAGGACUACCGAAGAGAAGGGACAUGAGGAUCACCCAUGUACCAU [EX4 B.24] (Eterna round: R97, puzzle: Exclusion 4) | 19.9 | – | 21.4 | – | – | – |
| CCCUCACAUGAGGAUCACCCAUGUCAGGAUAUUCAGGUCACGCAAAAGCGGUUCCAAAGGAGAAGGGACAUCAA [Cequusso] (puzzle: Exclusion 1) | – | – | – | 43.8 | 24.2 | 30.9 |
| GAAGAAAAGGCAGGAUAUCAGAAACACAUGAUAAGGAGAUGCAACAUGAGGAUCACCCAUGUAAAUGAGAAGGGCCGCCCUUCC [Arbiis] (Eterna round: R96, puzzle: Exclusion NG 2) | – | 28 | – | – | – | – |
| AACAGUCUGGAGGAUAUGCUGGAUUAAAAUCUGGCAGAAGGCUGGACAUGAGGAUCACCCAUGUAAAUACUACC [Omei Ex6 A2a] (Eterna round: R97, puzzle: Exclusion 6) | 73.1 | – | 24.8 | – | – | – |
| CUUUUGUGAGGAUAUCAGUAGUAAUACAAUAGUAUUAUUACUGAGAAGGCACAUGAGGAUCACCCAUGUUCCUC [Ex4 344 Omei mod 7] (puzzle: Exclusion 4) | – | – | – | – | 38.6 | – |
| GUCAGACGAGGAUAUAGAUUUAAGUACAUGAGGAUCACCCAUGUGCAUAUGUAUUUAGAUUUAGAAGGCGUCUGAC [E5/18-A3] (Eterna round: R97, puzzle: Exclusion 5) | 584 | – | 428 | – | – | – |
| UCCCGUGAAGGAUAUGGUUACAGGCACAUGAGGAUCACCCAUGUCACCUCGAAUACCUGAUCAGAAGGUUACUCGA [Eternabot (Original) Solution 40] (Eterna round: R97, puzzle: Exclusion 5) | 20.1 | – | 19.9 | – | – | – |
